The target in test [1] is FLAG-tagged Ser1169Cys (S2C) C-Proα2(I) (human). In words: non-reducing SDS-PAGE immunoblot; wild-type C-Proα1(I) and S2C C-Proα2(I) co-expressed at 1:1, 2:1 and 5:1; media depleted by HA immunoprecipitation, unbound fraction FLAG-immunoprecipitated, elutions on a non-reducing SDS-PAGE gel.
The target is the same in test [2]. In words: non-reducing SDS-PAGE immunoblot; conditioned media of transfected HEK293 cells, treated with 100 mM iodoacetamide, boiled in SDS, 12% gel, non-reducing; denaturing, shows disulfide-linked species only; two-colour detection of HA and FLAG.
The target is the same in test [3]. In words: co-IP; sequential: conditioned media of co-transfected HEK293 cells, anti-FLAG beads (C-Proα2(I)), FLAG peptide elution, then HA beads (C-Proα1(I)); non-reducing, washes with 50 mM EDTA to deplete Ca^2+, 4 °C; reducing SDS-PAGE immunoblot; ratio by quantified blots.
In test [4] the target is purified S2C (Ser1169Cys) C-Proα2(I), His tag cleaved (human). The experiment in a line: AUC; sedimentation equilibrium, 25 °C, 20 mM Bis-Tris propane pH 7, 150 mM NaCl, without Ca^2+; equilibrium constants are of monomer to dimer.
For test [5] the target is unchanged. In words: AUC; sedimentation equilibrium, 25 °C, 20 mM Bis-Tris propane pH 7, 150 mM NaCl, with 0.5 mM CaCl2; monomer to trimer.
Test [6] has as its target purified wild-type C-Proα2(I), His tag cleaved (human). In words: AUC; sedimentation equilibrium, 25 °C, 20 mM Bis-Tris propane pH 7, 150 mM NaCl, without Ca^2+; equilibrium constants are of monomer to dimer.
For test [7] the target is unchanged. The experiment in a line: AUC; sedimentation equilibrium, 25 °C, 20 mM Bis-Tris propane pH 7, 150 mM NaCl, with 0.5 mM CaCl2; monomer to trimer.
In test [8] the target is wild-type, FLAG-tagged C-Proα2(I) (C-propeptide domain of human Colα2(I)) (human). The experiment in a line: co-IP; sequential: conditioned media of co-transfected HEK293 cells, anti-FLAG beads (C-Proα2(I)), FLAG peptide elution, then HA beads (C-Proα1(I)); non-reducing, washes with 50 mM EDTA to deplete Ca^2+, 4 °C; reducing SDS-PAGE immunoblot; ratio by quantified blots.
Chain of wild-type, FLAG-tagged C-Proα2(I) (C-propeptide domain of human Colα2(I)) (human) (P08123 23-1366): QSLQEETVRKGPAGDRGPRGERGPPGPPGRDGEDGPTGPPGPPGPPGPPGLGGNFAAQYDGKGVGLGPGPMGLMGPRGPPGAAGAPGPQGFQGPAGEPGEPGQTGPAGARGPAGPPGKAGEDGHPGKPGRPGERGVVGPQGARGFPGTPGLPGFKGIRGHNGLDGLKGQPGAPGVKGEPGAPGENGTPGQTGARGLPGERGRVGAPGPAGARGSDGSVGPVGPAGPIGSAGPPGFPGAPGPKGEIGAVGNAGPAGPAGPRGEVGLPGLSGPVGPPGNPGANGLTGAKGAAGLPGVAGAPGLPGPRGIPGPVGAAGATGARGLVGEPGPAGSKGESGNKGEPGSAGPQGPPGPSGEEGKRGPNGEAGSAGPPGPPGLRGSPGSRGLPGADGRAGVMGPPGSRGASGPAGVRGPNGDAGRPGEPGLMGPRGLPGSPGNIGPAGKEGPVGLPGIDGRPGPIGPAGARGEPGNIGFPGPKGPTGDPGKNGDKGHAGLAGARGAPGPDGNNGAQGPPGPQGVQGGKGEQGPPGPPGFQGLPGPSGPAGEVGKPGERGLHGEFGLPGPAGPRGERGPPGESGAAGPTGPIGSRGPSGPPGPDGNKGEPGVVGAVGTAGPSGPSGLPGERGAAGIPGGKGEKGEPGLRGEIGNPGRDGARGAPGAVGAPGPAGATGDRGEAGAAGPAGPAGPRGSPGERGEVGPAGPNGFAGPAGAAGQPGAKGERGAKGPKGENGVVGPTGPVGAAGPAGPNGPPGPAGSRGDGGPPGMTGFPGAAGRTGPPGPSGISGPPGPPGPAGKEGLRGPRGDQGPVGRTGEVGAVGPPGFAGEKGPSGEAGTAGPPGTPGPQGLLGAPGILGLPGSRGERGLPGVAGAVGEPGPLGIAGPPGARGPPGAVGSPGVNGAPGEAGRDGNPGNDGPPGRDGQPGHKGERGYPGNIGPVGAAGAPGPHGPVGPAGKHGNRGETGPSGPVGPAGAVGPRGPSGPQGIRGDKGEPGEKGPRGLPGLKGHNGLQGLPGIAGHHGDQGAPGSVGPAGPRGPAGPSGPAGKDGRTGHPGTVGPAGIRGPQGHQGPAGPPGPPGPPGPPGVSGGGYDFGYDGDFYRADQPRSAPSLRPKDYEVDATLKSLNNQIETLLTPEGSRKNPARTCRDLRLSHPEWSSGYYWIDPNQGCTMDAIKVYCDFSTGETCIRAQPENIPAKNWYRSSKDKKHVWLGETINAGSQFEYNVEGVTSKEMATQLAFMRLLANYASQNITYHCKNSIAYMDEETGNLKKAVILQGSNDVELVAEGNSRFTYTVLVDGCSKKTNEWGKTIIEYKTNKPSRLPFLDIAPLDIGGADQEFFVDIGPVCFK

Test [9] concerns the target wild-type, HA-tagged C-Proα1(III) (human). The experiment in a line: non-reducing SDS-PAGE immunoblot; conditioned media of transfected HEK293 cells, treated with 100 mM iodoacetamide, boiled in SDS, 12% gel, non-reducing; denaturing, shows disulfide-linked species only; two-colour detection of HA and FLAG.

We go through six substances from paper PMC6181919.

Consider “FLAG-tagged Ser1169Cys (S2C) C-Proα2(I) (domain or fragment)”, for which the stoichiometry N in test [1] and in test [2] was 3 each time.
As to “HA-tagged Cys1265Ser (C2S) C-Proα1(I) (from UniProt P02452 1219-1464) (domain or fragment)”, in test [3], the stoichiometry N (C-Proα1(I):C-Proα2(I)) is 0.5.
As to “purified S2C (Ser1169Cys) C-Proα2(I), His tag cleaved (domain or fragment)”, the stoichiometry N in test [4] and in [5] was 3 throughout.
Take “purified wild-type C-Proα2(I), His tag cleaved (domain or fragment)”: in test [6], the Ka is 6500 M⁻¹ and the stoichiometry N worked out at 2. The substance also registered a stoichiometry N in test [7] of 3.
With “wild-type, HA-tagged C-Proα1(I) (C-propeptide domain of human Colα1(I)) (from UniProt P02452 1219-1464) (domain or fragment)”, the stoichiometry N (C-Proα1(I):C-Proα2(I)) in test [8] and in test [3] was 2 each time.
On to “wild-type, HA-tagged C-Proα1(III) (domain or fragment)”, for which the stoichiometry N in test [9] amounted to 3.
